# Laboratory results: patent US20240270846A1 (published 2024)
# Target: T1, CD3 epsilon homodimer protein (UniProt P07766 23-126)
# T1 construct: construct not described; homodimer as printed; also called CD3 (CD3 epsilon)
# Test: SPR Biacore T200, CD3 epsilon homodimer immobilized; vs unaltered GLS3000;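 also: antibody variants flowed as analyte over CD3 epsilon homodimer amine-coupled to a CM4 chip, at 25 °C in HBS-EP+ running buffer, fitted with Biacore T200 Evaluation Software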
# T1 sequence (P07766 23-126): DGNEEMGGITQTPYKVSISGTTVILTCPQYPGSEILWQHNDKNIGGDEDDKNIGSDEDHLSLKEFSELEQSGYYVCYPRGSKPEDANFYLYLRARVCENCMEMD
row,Binder,KD ratio to GLS3000 (Affinity up)
1,"GLS3000 H27dM (Kabat) L chain altered form, one-arm antibody with CE115HA000 (antibody, human IgG1, kappa, L234A L235A, N297A, name in Kabat numbering, one-arm antibody) heavy: QVQLVESGGGVVQPGRSLRLSCAASGFTFSNAWMHWVRQAPGKGLEWVAQIKAKSNNYATYYAESVKGRFTISRDDSKNSLYLQMNSLKTEDTAVYYCRYVHYGAYYGVDAWGQGTTVTVSSASTKGPSVFPLAPSSKSTSGGTAALGCLVKDYFPEPVTVSWNSGALTSGVHTFPAVLQSSGLYSLSSVVTVPSSSLGTQTYICNVNHKPSNTKVDKKVEPKSCDKTHTCPPCPAPEAAGGPSVFLFPPKPKDTLMISRTPEVTCVVVDVSHEDPEVKFNWYVDGVEVHNAKTKPREEQYASTYRVVSVLTVLHQDWLNGKEYKCKVSNKALPAPIEKTISKAKGQPREPQVYTLPPSRCELTKNQVSLSCAVKGFYPSDIAVEWESNGQPENNYKTTPPVLDSDGSFFLVSKLTVDKSRWQQGNVFSCSVMHEALHNHYTQKSLSLSPDYKDDDDK EPKSSDKTHTCPPCPAPELLGGPSVFLFPPKPKDTLMISRTPEVTCVVVDVSHEDPEVKFNWYVDGVEVHNAKTKPREEQYNSTYRVVSVLTVLHQDWLNGKEYKCKVSNKALPAPIEKTISKAKGQPREPQVCTLPPSRDELTKNQVSLWCLVKGFYPSDIAVEWESNGQPENNYKTTPPVLDSDGSFFLYSKLTVDKSRWQQGNVFSCSVMHEALHNRYTQKSLSLSP light: DIVMTQSPLSLPVTPGEPASISCRSSQSLVMSNRNTYLHWYQQKPGQAPRLLIYKVSNRFSGVPDRFSGSGSGTDFTLKISRVEAEDVGVYYCGQGTQVPYTFGQGTKLEIKRTVAAPSVFIFPPSDEQLKSGTASVVCLLNNFYPREAKVQWKVDNALQSGNSQESVTEQDSKDSTYSLSSTLTLSKADYEKHKVYACEVTHQGLSSPVTKSFNRGEC",3.43
2,"GLS3000 H27dN (Kabat) L chain altered form, one-arm antibody with CE115HA000 (antibody, human IgG1, kappa, L234A L235A, N297A, name in Kabat numbering, one-arm antibody) heavy: QVQLVESGGGVVQPGRSLRLSCAASGFTFSNAWMHWVRQAPGKGLEWVAQIKAKSNNYATYYAESVKGRFTISRDDSKNSLYLQMNSLKTEDTAVYYCRYVHYGAYYGVDAWGQGTTVTVSSASTKGPSVFPLAPSSKSTSGGTAALGCLVKDYFPEPVTVSWNSGALTSGVHTFPAVLQSSGLYSLSSVVTVPSSSLGTQTYICNVNHKPSNTKVDKKVEPKSCDKTHTCPPCPAPEAAGGPSVFLFPPKPKDTLMISRTPEVTCVVVDVSHEDPEVKFNWYVDGVEVHNAKTKPREEQYASTYRVVSVLTVLHQDWLNGKEYKCKVSNKALPAPIEKTISKAKGQPREPQVYTLPPSRCELTKNQVSLSCAVKGFYPSDIAVEWESNGQPENNYKTTPPVLDSDGSFFLVSKLTVDKSRWQQGNVFSCSVMHEALHNHYTQKSLSLSPDYKDDDDK EPKSSDKTHTCPPCPAPELLGGPSVFLFPPKPKDTLMISRTPEVTCVVVDVSHEDPEVKFNWYVDGVEVHNAKTKPREEQYNSTYRVVSVLTVLHQDWLNGKEYKCKVSNKALPAPIEKTISKAKGQPREPQVCTLPPSRDELTKNQVSLWCLVKGFYPSDIAVEWESNGQPENNYKTTPPVLDSDGSFFLYSKLTVDKSRWQQGNVFSCSVMHEALHNRYTQKSLSLSP light: DIVMTQSPLSLPVTPGEPASISCRSSQSLVNSNRNTYLHWYQQKPGQAPRLLIYKVSNRFSGVPDRFSGSGSGTDFTLKISRVEAEDVGVYYCGQGTQVPYTFGQGTKLEIKRTVAAPSVFIFPPSDEQLKSGTASVVCLLNNFYPREAKVQWKVDNALQSGNSQESVTEQDSKDSTYSLSSTLTLSKADYEKHKVYACEVTHQGLSSPVTKSFNRGEC",3.43
3,"GLS3000 H27dP (Kabat) L chain altered form, one-arm antibody with CE115HA000 (antibody, human IgG1, kappa, L234A L235A, N297A, name in Kabat numbering, one-arm antibody) heavy: QVQLVESGGGVVQPGRSLRLSCAASGFTFSNAWMHWVRQAPGKGLEWVAQIKAKSNNYATYYAESVKGRFTISRDDSKNSLYLQMNSLKTEDTAVYYCRYVHYGAYYGVDAWGQGTTVTVSSASTKGPSVFPLAPSSKSTSGGTAALGCLVKDYFPEPVTVSWNSGALTSGVHTFPAVLQSSGLYSLSSVVTVPSSSLGTQTYICNVNHKPSNTKVDKKVEPKSCDKTHTCPPCPAPEAAGGPSVFLFPPKPKDTLMISRTPEVTCVVVDVSHEDPEVKFNWYVDGVEVHNAKTKPREEQYASTYRVVSVLTVLHQDWLNGKEYKCKVSNKALPAPIEKTISKAKGQPREPQVYTLPPSRCELTKNQVSLSCAVKGFYPSDIAVEWESNGQPENNYKTTPPVLDSDGSFFLVSKLTVDKSRWQQGNVFSCSVMHEALHNHYTQKSLSLSPDYKDDDDK EPKSSDKTHTCPPCPAPELLGGPSVFLFPPKPKDTLMISRTPEVTCVVVDVSHEDPEVKFNWYVDGVEVHNAKTKPREEQYNSTYRVVSVLTVLHQDWLNGKEYKCKVSNKALPAPIEKTISKAKGQPREPQVCTLPPSRDELTKNQVSLWCLVKGFYPSDIAVEWESNGQPENNYKTTPPVLDSDGSFFLYSKLTVDKSRWQQGNVFSCSVMHEALHNRYTQKSLSLSP light: DIVMTQSPLSLPVTPGEPASISCRSSQSLVPSNRNTYLHWYQQKPGQAPRLLIYKVSNRFSGVPDRFSGSGSGTDFTLKISRVEAEDVGVYYCGQGTQVPYTFGQGTKLEIKRTVAAPSVFIFPPSDEQLKSGTASVVCLLNNFYPREAKVQWKVDNALQSGNSQESVTEQDSKDSTYSLSSTLTLSKADYEKHKVYACEVTHQGLSSPVTKSFNRGEC",9.21

# The next lines start with the values.
row,KD ratio to GLS3000 (Affinity up),Binder
1,3.05,"GLS3000 H27dS (Kabat) L chain altered form, one-arm antibody with CE115HA000 (antibody, human IgG1, kappa, L234A L235A, N297A, name in Kabat numbering, one-arm antibody) heavy: QVQLVESGGGVVQPGRSLRLSCAASGFTFSNAWMHWVRQAPGKGLEWVAQIKAKSNNYATYYAESVKGRFTISRDDSKNSLYLQMNSLKTEDTAVYYCRYVHYGAYYGVDAWGQGTTVTVSSASTKGPSVFPLAPSSKSTSGGTAALGCLVKDYFPEPVTVSWNSGALTSGVHTFPAVLQSSGLYSLSSVVTVPSSSLGTQTYICNVNHKPSNTKVDKKVEPKSCDKTHTCPPCPAPEAAGGPSVFLFPPKPKDTLMISRTPEVTCVVVDVSHEDPEVKFNWYVDGVEVHNAKTKPREEQYASTYRVVSVLTVLHQDWLNGKEYKCKVSNKALPAPIEKTISKAKGQPREPQVYTLPPSRCELTKNQVSLSCAVKGFYPSDIAVEWESNGQPENNYKTTPPVLDSDGSFFLVSKLTVDKSRWQQGNVFSCSVMHEALHNHYTQKSLSLSPDYKDDDDK EPKSSDKTHTCPPCPAPELLGGPSVFLFPPKPKDTLMISRTPEVTCVVVDVSHEDPEVKFNWYVDGVEVHNAKTKPREEQYNSTYRVVSVLTVLHQDWLNGKEYKCKVSNKALPAPIEKTISKAKGQPREPQVCTLPPSRDELTKNQVSLWCLVKGFYPSDIAVEWESNGQPENNYKTTPPVLDSDGSFFLYSKLTVDKSRWQQGNVFSCSVMHEALHNRYTQKSLSLSP light: DIVMTQSPLSLPVTPGEPASISCRSSQSLVSSNRNTYLHWYQQKPGQAPRLLIYKVSNRFSGVPDRFSGSGSGTDFTLKISRVEAEDVGVYYCGQGTQVPYTFGQGTKLEIKRTVAAPSVFIFPPSDEQLKSGTASVVCLLNNFYPREAKVQWKVDNALQSGNSQESVTEQDSKDSTYSLSSTLTLSKADYEKHKVYACEVTHQGLSSPVTKSFNRGEC"
2,7.48,"GLS3000 H27dQ (Kabat) L chain altered form, one-arm antibody with CE115HA000 (antibody, human IgG1, kappa, L234A L235A, N297A, name in Kabat numbering, one-arm antibody) heavy: QVQLVESGGGVVQPGRSLRLSCAASGFTFSNAWMHWVRQAPGKGLEWVAQIKAKSNNYATYYAESVKGRFTISRDDSKNSLYLQMNSLKTEDTAVYYCRYVHYGAYYGVDAWGQGTTVTVSSASTKGPSVFPLAPSSKSTSGGTAALGCLVKDYFPEPVTVSWNSGALTSGVHTFPAVLQSSGLYSLSSVVTVPSSSLGTQTYICNVNHKPSNTKVDKKVEPKSCDKTHTCPPCPAPEAAGGPSVFLFPPKPKDTLMISRTPEVTCVVVDVSHEDPEVKFNWYVDGVEVHNAKTKPREEQYASTYRVVSVLTVLHQDWLNGKEYKCKVSNKALPAPIEKTISKAKGQPREPQVYTLPPSRCELTKNQVSLSCAVKGFYPSDIAVEWESNGQPENNYKTTPPVLDSDGSFFLVSKLTVDKSRWQQGNVFSCSVMHEALHNHYTQKSLSLSPDYKDDDDK EPKSSDKTHTCPPCPAPELLGGPSVFLFPPKPKDTLMISRTPEVTCVVVDVSHEDPEVKFNWYVDGVEVHNAKTKPREEQYNSTYRVVSVLTVLHQDWLNGKEYKCKVSNKALPAPIEKTISKAKGQPREPQVCTLPPSRDELTKNQVSLWCLVKGFYPSDIAVEWESNGQPENNYKTTPPVLDSDGSFFLYSKLTVDKSRWQQGNVFSCSVMHEALHNRYTQKSLSLSP light: DIVMTQSPLSLPVTPGEPASISCRSSQSLVQSNRNTYLHWYQQKPGQAPRLLIYKVSNRFSGVPDRFSGSGSGTDFTLKISRVEAEDVGVYYCGQGTQVPYTFGQGTKLEIKRTVAAPSVFIFPPSDEQLKSGTASVVCLLNNFYPREAKVQWKVDNALQSGNSQESVTEQDSKDSTYSLSSTLTLSKADYEKHKVYACEVTHQGLSSPVTKSFNRGEC"
3,2.35,"GLS3000 H27dR (Kabat) L chain altered form, one-arm antibody with CE115HA000 (antibody, human IgG1, kappa, L234A L235A, N297A, name in Kabat numbering, one-arm antibody) heavy: QVQLVESGGGVVQPGRSLRLSCAASGFTFSNAWMHWVRQAPGKGLEWVAQIKAKSNNYATYYAESVKGRFTISRDDSKNSLYLQMNSLKTEDTAVYYCRYVHYGAYYGVDAWGQGTTVTVSSASTKGPSVFPLAPSSKSTSGGTAALGCLVKDYFPEPVTVSWNSGALTSGVHTFPAVLQSSGLYSLSSVVTVPSSSLGTQTYICNVNHKPSNTKVDKKVEPKSCDKTHTCPPCPAPEAAGGPSVFLFPPKPKDTLMISRTPEVTCVVVDVSHEDPEVKFNWYVDGVEVHNAKTKPREEQYASTYRVVSVLTVLHQDWLNGKEYKCKVSNKALPAPIEKTISKAKGQPREPQVYTLPPSRCELTKNQVSLSCAVKGFYPSDIAVEWESNGQPENNYKTTPPVLDSDGSFFLVSKLTVDKSRWQQGNVFSCSVMHEALHNHYTQKSLSLSPDYKDDDDK EPKSSDKTHTCPPCPAPELLGGPSVFLFPPKPKDTLMISRTPEVTCVVVDVSHEDPEVKFNWYVDGVEVHNAKTKPREEQYNSTYRVVSVLTVLHQDWLNGKEYKCKVSNKALPAPIEKTISKAKGQPREPQVCTLPPSRDELTKNQVSLWCLVKGFYPSDIAVEWESNGQPENNYKTTPPVLDSDGSFFLYSKLTVDKSRWQQGNVFSCSVMHEALHNRYTQKSLSLSP light: DIVMTQSPLSLPVTPGEPASISCRSSQSLVRSNRNTYLHWYQQKPGQAPRLLIYKVSNRFSGVPDRFSGSGSGTDFTLKISRVEAEDVGVYYCGQGTQVPYTFGQGTKLEIKRTVAAPSVFIFPPSDEQLKSGTASVVCLLNNFYPREAKVQWKVDNALQSGNSQESVTEQDSKDSTYSLSSTLTLSKADYEKHKVYACEVTHQGLSSPVTKSFNRGEC"
